Data published in US20170320919A1.

Tests used:
[1] = molecular target: Purified Dab prepared from heat-treated E. coli supernatant; experiment: column chromatography, ligand coupled to agarose beads at 11.0 mg/ml, 1 mg/ml Dab feed, residence time 4 min
[2] = molecular target: human polyclonal IgG (Gammanorm) (human); experiment: SPR (Biacore), ligand amine-coupled to CM5 chip, 1 mg/ml IgG flowed; IgG binding signal left after 100 cycles of 100 mM NaOH, 10 min
[3] = molecular target: Purified Fab prepared from a papain-digested IgG mAb; experiment: column chromatography, ligand coupled to agarose beads at 11.0 mg/ml, 1 mg/ml Fab feed, residence time 4 min
[4] = molecular target: human polyclonal IgG (Gammanorm) (human); experiment: SPR (Biacore), retained IgG binding capacity after 100 NaOH cycles against reference Protein L
[5] = molecular target: Purified Dab prepared from heat-treated E. coli supernatant; experiment: column chromatography, ligand coupled to agarose beads at 8.8 mg/ml, 1 mg/ml Dab feed, residence time 4 min
[6] = molecular target: Purified Fab prepared from a papain-digested IgG mAb; experiment: column chromatography, ligand coupled to agarose beads at 8.8 mg/ml, 1 mg/ml Fab feed, residence time 4 min
[7] = molecular target: human polyclonal IgG (Gammanorm) (human); experiment: SPR (Biacore), retained IgG binding capacity after 96 NaOH cycles against reference Protein L
[8] = molecular target: human polyclonal IgG (Gammanorm) (human); experiment: SPR (Biacore), ligand amine-coupled to CM5 chip, 1 mg/ml IgG flowed; IgG binding signal left after 96 cycles of 100 mM NaOH, 10 min
[9] = molecular target: human polyclonal IgG (Gammanorm) (human); experiment: SPR (Biacore), retained IgG binding capacity after 96 NaOH cycles against reference Domain 3
[10] = molecular target: Purified Fab prepared from a papain-digested IgG mAb; experiment: column chromatography, ligand coupled to agarose beads at 9.5 mg/ml, 1 mg/ml Fab feed, residence time 4 min
[11] = molecular target: Purified Dab prepared from heat-treated E. coli supernatant; experiment: column chromatography, ligand coupled to agarose beads at 9.5 mg/ml, 1 mg/ml Dab feed, residence time 4 min
[12] = molecular target: human polyclonal IgG (Gammanorm) (human); experiment: SPR (Biacore), retained IgG binding capacity after 96 NaOH cycles against reference Domain 3 (second series)
[13] = molecular target: human polyclonal IgG (Gammanorm) (human); experiment: SPR (Biacore), ligand amine-coupled to CM5 chip, 1 mg/ml IgG flowed; IgG binding signal left after 96 cycles of 100 mM NaOH, 10 min (second series, with the Q19 mutants)

| Binder | Retained capacity after 100 cycles (%) [2] [%] | Sample/ref. ratio [4] | Retained capacity after 96 cycles (%) [8] [%] | Sample/ref. ratio [9] | further results |
| --- | --- | --- | --- | --- | --- |
| D3(N10Q, N45A, N60Q)6 (designed binder) PKEEVTIKAQLIYADGKTQTAEFKGTFEEATAEAYRYADLLAKEAGKYTVDVADKGYTLQIKFAGKEKTPEEPKEEVTIKAQLIYADGKTQTAEFKGTFEEATAEAYRYADLLAKEAGKYTVDVADKGYTLQIKFAGKEKTPEEPKEEVTIKAQLIYADGKTQTAEFKGTFEEATAEAYRYADLLAKEAGKYTVDVADKGYTLQIKFAGKEKTPEEPKEEVTIKAQLIYADGKTQTAEFKGTFEEATAEAYRYADLLAKEAGKYTVDVADKGYTLQIKFAGKEKTPEEPKEEVTIKAQLIYADGKTQTAEFKGTFEEATAEAYRYADLLAKEAGKYTVDVADKGYTLQIKFAGKEKTPEEPKEEVTIKAQLIYADGKTQTAEFKGTFEEATAEAYRYADLLAKEAGKYTVDVADKGYTLQIKFAGKEKTPEE | 58 | 2.52 |  |  | QB10 Dab (dynamic binding capacity at 10% breakthrough) [1]: 16.7 mg/mL; QB10 Fab (dynamic binding capacity at 10% breakthrough) [3]: 21.1 mg/mL |
| D3(N10Q, N45A, N60Q)4-cys (designed binder) PKEEVTIKAQLIYADGKTQTAEFKGTFEEATAEAYRYADLLAKEAGKYTVDVADKGYTLQIKFAGKEKTPEEPKEEVTIKAQLIYADGKTQTAEFKGTFEEATAEAYRYADLLAKEAGKYTVDVADKGYTLQIKFAGKEKTPEEPKEEVTIKAQLIYADGKTQTAEFKGTFEEATAEAYRYADLLAKEAGKYTVDVADKGYTLQIKFAGKEKTPEEPKEEVTIKAQLIYADGKTQTAEFKGTFEEATAEAYRYADLLAKEAGKYTVDVADKGYTLQIKFAGKEKTPEEC | 54 | 2.35 |  |  |  |
| D3(N10Q, N45A, N60Q)4 (designed binder) PKEEVTIKAQLIYADGKTQTAEFKGTFEEATAEAYRYADLLAKEAGKYTVDVADKGYTLQIKFAGKEKTPEEPKEEVTIKAQLIYADGKTQTAEFKGTFEEATAEAYRYADLLAKEAGKYTVDVADKGYTLQIKFAGKEKTPEEPKEEVTIKAQLIYADGKTQTAEFKGTFEEATAEAYRYADLLAKEAGKYTVDVADKGYTLQIKFAGKEKTPEEPKEEVTIKAQLIYADGKTQTAEFKGTFEEATAEAYRYADLLAKEAGKYTVDVADKGYTLQIKFAGKEKTPEE | 60 | 2.61 |  |  | QB10 Dab (dynamic binding capacity at 10% breakthrough) [5]: 15.9 mg/mL; QB10 Fab (dynamic binding capacity at 10% breakthrough) [6]: 19.3 mg/mL |
| Domain 3 tetramer (designed binder) PKEEVTIKANLIYADGKTQTAEFKGTFEEATAEAYRYADLLAKENGKYTVDVADKGYTLNIKFAGKEKTPEEPKEEVTIKANLIYADGKTQTAEFKGTFEEATAEAYRYADLLAKENGKYTVDVADKGYTLNIKFAGKEKTPEEPKEEVTIKANLIYADGKTQTAEFKGTFEEATAEAYRYADLLAKENGKYTVDVADKGYTLNIKFAGKEKTPEEPKEEVTIKANLIYADGKTQTAEFKGTFEEATAEAYRYADLLAKENGKYTVDVADKGYTLNIKFAGKEKTPEE |  |  | 38 |  | Sample/ref. ratio [7]: 1.36 |
| D3(N10Q, N45A, N60Q)6-cys (designed binder) PKEEVTIKAQLIYADGKTQTAEFKGTFEEATAEAYRYADLLAKEAGKYTVDVADKGYTLQIKFAGKEKTPEEPKEEVTIKAQLIYADGKTQTAEFKGTFEEATAEAYRYADLLAKEAGKYTVDVADKGYTLQIKFAGKEKTPEEPKEEVTIKAQLIYADGKTQTAEFKGTFEEATAEAYRYADLLAKEAGKYTVDVADKGYTLQIKFAGKEKTPEEPKEEVTIKAQLIYADGKTQTAEFKGTFEEATAEAYRYADLLAKEAGKYTVDVADKGYTLQIKFAGKEKTPEEPKEEVTIKAQLIYADGKTQTAEFKGTFEEATAEAYRYADLLAKEAGKYTVDVADKGYTLQIKFAGKEKTPEEPKEEVTIKAQLIYADGKTQTAEFKGTFEEATAEAYRYADLLAKEAGKYTVDVADKGYTLQIKFAGKEKTPEEC | 56 | 2.43 |  |  |  |
| Domain 1 (D1) (protein) AQVSEEEVTIKANLIFANGSTQTAEFKGTFEKATSEAYAYADTLKKDNGEYTVDVADKGYTLNIKFAGKEKTPEEC |  |  | 13 | 0.42 |  |
| D3(N10Q, N45A, N60Q)2 (designed binder) PKEEVTIKAQLIYADGKTQTAEFKGTFEEATAEAYRYADLLAKEAGKYTVDVADKGYTLQIKFAGKEKTPEEPKEEVTIKAQLIYADGKTQTAEFKGTFEEATAEAYRYADLLAKEAGKYTVDVADKGYTLQIKFAGKEKTPEE | 59 | 2.56 |  |  | QB10 Fab (dynamic binding capacity at 10% breakthrough) [10]: 19.3 mg/mL; QB10 Dab (dynamic binding capacity at 10% breakthrough) [11]: 15.4 mg/mL |
| Protein L (protein) AIHNRAKEETPETPETDSEEEVTIKANLIFANGSTQTAEFKGTFEKATSEAYAYADTLKKDNGEYTVDVADKGYTLNIKFAGKEKTPEEPKEEVTIKANLIYADGKTQTAEFKGTFEEATAEAYRYADALKKDNGEYTVDVADKGYTLNIKFAGKEKTPEEPKEEVTIKANLIYADGKTQTAEFKGTFEEATAEAYRYADLLAKENGKYTVDVADKGYTLNIKFAGKEKTPEEPKEEVTIKANLIYADGKTQTAEFKGTFAEATAEAYRYADLLAKENGKYTADLEDGGYTINIRFAGKKVDEKPEE | 23 | 1 | 28 |  | Sample/ref. ratio [7]: 1 |
| Domain 4 (D4) (protein) AQVPKEEVTIKANLIYADGKTQTAEFKGTFAEATAEAYRYADLLAKENGKYTADLEDGGYTINIRFAGKKVDEKPEEC |  |  | 26 | 0.84 |  |
| D3(N45A)1 (designed binder) PKEEVTIKANLIYADGKTQTAEFKGTFEEATAEAYRYADLLAKEAGKYTVDVADKGYTLNIKFAGKEKTPEE |  |  | 44 | 1.42 |  |
| D3(Q19E)1 (designed binder) PKEEVTIKANLIYADGKTETAEFKGTFEEATAEAYRYADLLAKENGKYTVDVADKGYTLNIKFAGKEKTPEE |  |  | 31 |  | Sample/ref. ratio [12]: 1.11 |
| D3(N10Q, N45A, N60Q)1 (designed binder) PKEEVTIKAQLIYADGKTQTAEFKGTFEEATAEAYRYADLLAKEAGKYTVDVADKGYTLQIKFAGKEKTPEE |  |  | 59 | 1.9 |  |
| D3(N45A, N60Q)1 (designed binder) PKEEVTIKANLIYADGKTQTAEFKGTFEEATAEAYRYADLLAKEAGKYTVDVADKGYTLQIKFAGKEKTPEE |  |  | 59 | 1.9 |  |
| D3(N10Q, N45A)1 (designed binder) PKEEVTIKAQLIYADGKTQTAEFKGTFEEATAEAYRYADLLAKEAGKYTVDVADKGYTLNIKFAGKEKTPEE |  |  | 48 | 1.55 |  |
| D3(Q19A)1 (designed binder) PKEEVTIKANLIYADGKTATAEFKGTFEEATAEAYRYADLLAKENGKYTVDVADKGYTLNIKFAGKEKTPEE |  |  | 28 |  | Sample/ref. ratio [12]: 1 |
| D3(N10Q, N45A, N60Q)2-cys (designed binder) PKEEVTIKAQLIYADGKTQTAEFKGTFEEATAEAYRYADLLAKEAGKYTVDVADKGYTLQIKFAGKEKTPEEPKEEVTIKAQLIYADGKTQTAEFKGTFEEATAEAYRYADLLAKEAGKYTVDVADKGYTLQIKFAGKEKTPEEC | 59 | 2.56 |  |  |  |
| Domain 3 (D3) (protein) AQVPKEEVTIKANLIYADGKTQTAEFKGTFEEATAEAYRYADLLAKENGKYTVDVADKGYTLNIKFAGKEKTPEEC |  |  | 31 | 1 | Sample/ref. ratio [12]: 1; Retained capacity after 96 cycles (%) [13]: 28% |
| Domain 2 (D2) (protein) AQVPKEEVTIKANLIYADGKTQTAEFKGTFEEAAAEAYRYADALKKDNGEYTVDVADKGYTLNIKFAGKEKTPEEC |  |  | 22 | 0.71 |  |
